Data taken from US20060264616.

T1: reconstituted tissue factor (Innovin, Dade) and membrane, P13726
T1 chain: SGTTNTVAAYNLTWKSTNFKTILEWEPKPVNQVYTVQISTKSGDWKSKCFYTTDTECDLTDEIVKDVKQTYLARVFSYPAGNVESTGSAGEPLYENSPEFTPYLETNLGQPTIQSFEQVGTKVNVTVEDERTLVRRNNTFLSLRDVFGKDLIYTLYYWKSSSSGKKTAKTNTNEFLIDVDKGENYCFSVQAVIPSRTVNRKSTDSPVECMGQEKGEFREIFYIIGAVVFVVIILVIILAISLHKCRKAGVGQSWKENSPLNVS


Columns and labels:
[1] = target: reconstituted tissue factor (Innovin, Dade) and membrane (UniProt P13726)
[2] = target: T1, reconstituted tissue factor (Innovin, …)

Molecule | activity (competitive assay described in Example 6) [1] | activity in the competitive assay described in Example 6 [2]
Factor VII mutant Q11E33I34F35 | displayed similar activity as the Q11E33F34I35 mutant | –
factor VII F5K (protein) ANAKLEELRPGSLERECKEEQCSFEEAREIFKDAERTKLFWISYSDGDQCASSPCQNGGSCKDQLQSYICFCLPAFEGRNCETHKDDQLICVNENGGCEQYCSDHTGTKRSCRCHEGYSLLADGVSCTPTVEYPCGKIPILEKRNASKPQGRIVGGKVCPKGECPWQVLLLVNGAQLCGGTLINTIWVVSAAHCFDKIKNWRNLIAVLGEHDLSEHDGDEQSRRVAQVIIPSTYVPGTTNHDIALLRLHQPVVLTDHVVPLCLPERTFSERTLAFVRFSLVSGWGQLLDRGATALELMVLNVPRLMTQDCLQQSRKVGDSPNITEYMFCAGYSDGSKDSCKGDSGGPHATHYRGTWYLTGIVSWGQGCATVGHFGVYTRVSQYIEWLQKLMRSEPRPGVLLRAPFP | – | a protein with 33% of the activity of wild type factor VII
Factor VII mutant Q11E33F34I35 (protein) ANAFLEELRQGSLERECKEEQCSFEEAREIFEFIERTKLFWISYSDGDQCASSPCQNGGSCKDQLQSYICFCLPAFEGRNCETHKDDQLICVNENGGCEQYCSDHTGTKRSCRCHEGYSLLADGVSCTPTVEYPCGKIPILEKRNASKPQGRIVGGKVCPKGECPWQVLLLVNGAQLCGGTLINTIWVVSAAHCFDKIKNWRNLIAVLGEHDLSEHDGDEQSRRVAQVIIPSTYVPGTTNHDIALLRLHQPVVLTDHVVPLCLPERTFSERTLAFVRFSLVSGWGQLLDRGATALELMVLNVPRLMTQDCLQQSRKVGDSPNITEYMFCAGYSDGSKDSCKGDSGGPHATHYRGTWYLTGIVSWGQGCATVGHFGVYTRVSQYIEWLQKLMRSEPRPGVLLRAPFP | – | The activity of the resulting mutant Q11E33F34135 was 60% that of the Q11E33F34 mutant
factor VII mutant Q11E33D36 (protein) ANAFLEELRQGSLERECKEEQCSFEEAREIFEDADRTKLFWISYSDGDQCASSPCQNGGSCKDQLQSYICFCLPAFEGRNCETHKDDQLICVNENGGCEQYCSDHTGTKRSCRCHEGYSLLADGVSCTPTVEYPCGKIPILEKRNASKPQGRIVGGKVCPKGECPWQVLLLVNGAQLCGGTLINTIWVVSAAHCFDKIKNWRNLIAVLGEHDLSEHDGDEQSRRVAQVIIPSTYVPGTTNHDIALLRLHQPVVLTDHVVPLCLPERTFSERTLAFVRFSLVSGWGQLLDRGATALELMVLNVPRLMTQDCLQQSRKVGDSPNITEYMFCAGYSDGSKDSCKGDSGGPHATHYRGTWYLTGIVSWGQGCATVGHFGVYTRVSQYIEWLQKLMRSEPRPGVLLRAPFP | – | had 70% the activity of the Q11E33 mutant
